Reference: patent US20260055150A1 (REGENTS OF THE UNIVERSITY OF MICHIGAN, published 2026)
Where no end group is shown, it is not given here.

T1: claudin-1 on colonic patient-derived organoid cells (human, UniProt O95832 1-211)
T1 construct: whole, on cells; also called CLN1
T1 sequence (looked up): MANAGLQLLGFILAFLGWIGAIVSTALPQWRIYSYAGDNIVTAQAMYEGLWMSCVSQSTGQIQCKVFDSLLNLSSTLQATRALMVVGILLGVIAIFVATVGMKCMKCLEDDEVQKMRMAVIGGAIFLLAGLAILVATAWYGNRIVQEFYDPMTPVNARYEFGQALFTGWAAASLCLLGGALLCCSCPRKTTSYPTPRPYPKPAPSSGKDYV


What was measured:
[1] = biological target: T2, epidermal growth factor receptor (EGFR) on patient-derived organoid cells (human, UniProt P00533 25-1210); experiment: in vivo wide-field fluorescence endoscopy of PDO implanted in mouse colon, peptide given intravenously
T2 construct: whole, on cells
Experimental: Cultures were harvested from Matrigel in cold DPBS, triturated 30× with a 1 mL pipette tip, and centrifuged at 300 g for 3 min at 4° C. […] The colonoid fragments were further dissociated by 20× pipetting with a 1 mL pipette tip. […] Slow centrifugation at 100 g was performed to reduce the single cell content. The cell aggregates were resuspended in cold DPBS supplemented with 5% Matrigel and 10 µM Y27632. 1.8×10⁶ cell aggregates in 200 μL were transplanted per mouse as described previously. The implants were monitored over time using a rigid wide-field endoscope and a flexible fiber-coupled endomicroscope to localize the PDO and visualize EGFR expression with sub-cellular resolution.
Organoids grown in vitro (FIG. 17A) were implanted on day 7 post-DSS treatment. For implantation, in vitro grown PDOs were disrupted into smaller aggregates in 200 μL volume and were implanted intrarectally in anesthetized mice. The rectum was closed immediately using tissue glue. After several weeks to establish viability, the implanted PDOs were imaged using a rigid wide-field endoscope. The fluorescently-labeled peptide QRH*-Cy5 was administered intravenously at a dose of 300 μM in 200 μL of PBS.

[2] = biological target: T1, claudin-1 on colonic patient-derived …; experiment: ex vivo immunofluorescence staining of resected tissue
Text: After completion of in vivo imaging, the results were validated using IF.

Binder	binding result [1]	binding result [2]
QRHKPRE (also: Cy5 label, attachment not given here, also called Cy5QRH*-Cy5) [QRH*-Cy5 (QRHKPRE labeled with Cy5)]	binds	–
RTSPSSR (also: Cy5.5 label, attachment not given here, also called peptide specific for claudin-1) [RTS*-Cy5.5 (Cy5.5-labeled peptide RTSPSSR)]	–	binds
